{
  "source": "patent EP3222712A1",
  "about": "“ALCOHOL DEHYDROGENASE FROM PICHIA PASTORIS AND USE THEREOF” (priority 2016, dated 2017)",
  "test_in_all_cases": "kinetic parameters of purified PPADH by photometry",
  "format_in_all_cases": "biochemical, Pichia pastoris GS 115",
  "key": {"[1]": {"target": "alcohol dehydrogenase from Pichia pastoris (PPADH) (Komagataella phaffii, UniProt C4R4L0)", "protocol": "(§1) In order to determine the kinetic parameters of the recombinant PPADH, purified enzyme was manufactured as described in example 4b). Afterwards the described test for reductive activity was used. All parameters such as 100 mM tris HCl buffer (pH 7), 0.2 mM NADPH, and 10 µl enzyme (purified PPADH) were kept constant, except that concentration of substrate and concentration of co-factor were varied. The kinetic parameters were calculated using the software GraphPad Prism5 based on a non-linear ,fitting\"-algorithm. Table 4: kinetic parameters of purified PPADH regarding benzaldehyde, racemic CF3-ketone as substrates and the co-factor NADPH determined by photometry"}, "[2]": {"substrate": "CC(=O)CC(O)(c1ccccc1)C(F)(F)F", "protocol": "as §1"}, "[3]": {"substrate": "O=Cc1ccccc1", "conditions": "other: purified PPADH, tris HCl pH 7, non-linear fitting", "protocol": "as §1"}, "[4]": {"conditions": "other: purified PPADH, tris HCl pH 7, non-linear fitting"}},
  "note": "Marks after values point to notes of the source that are not given here.",
  "data": [
    {"molecule": "NC(=O)C1=CN([C@@H]2O[C@H](COP(=O)(O)OP(=O)(O)OC[C@H]3O[C@@H](n4cnc5c(N)ncnc54)[C@H](OP(=O)(O)O)[C@@H]3O)[C@@H](O)[C@H]2O)C=CC1", "note": "[NADPH]", "values": [
      {"measurement": "Vmax", "setting": "[1]; tris HCl pH 7", "result": 94.2, "unit": "U/mg"},
      {"measurement": "kcat", "setting": "[1]; tris HCl pH 7", "result": 19.5, "unit": "s⁻¹"},
      {"measurement": "Km", "setting": "[1]; tris HCl pH 7, non-linear fitting", "result": 48.3, "unit": "µM"}
    ]},
    {"molecule": "alcohol dehydrogenase from Pichia pastoris (PPADH) (Komagataella phaffii GS115) (protein) MVSKVLLTGASGYIAQHITNELLSHGFKVIGTVRRQEQADQLHKQFSEESSVLQKDPSLLTYVLVPDIGASDAFDEVLKSTPDITYVLHTASPFIFNDDRALEDVYLKPAVEGTRNILSAIKKFANDSVKNVVVTSSFAAILNADKFEDKSFIHTEKVWNNNTWDQTKSGDRGVAYIVSKKEAEKAAWDFVEKEKPNFKLTTVNPPYVFGPQKFDASAKKESLNTSAEIVGSLLHTKYPSDDKLFDDPLNLSVDVRDVALYHVLPLLNADLASRRLLVVQSKFSAQRILNIINENFPELKGKIAVGKPEETARVEAIKGPEYNNSVTVGLTGVDPIPLEKTVVDSVKQILRANK", "values": [
      {"measurement": "Km", "setting": "[2]; other: corrected for 50% (S)-enantiomer in the racemic substrate, pH 7.0", "result": 899, "unit": "µM"},
      {"measurement": "Km", "setting": "[2]; [4]", "result": "1797.0* µM"},
      {"measurement": "Vmax", "setting": "[2]; [4]", "result": 46.3, "unit": "U/mg"},
      {"measurement": "kcat", "setting": "[2]; [4]", "result": 6.4, "unit": "s⁻¹"},
      {"measurement": "kcat/Km", "setting": "[2]; [4]", "result": "3.6* s^-1mM^-1"},
      {"measurement": "Km", "setting": "[3]", "result": 3034.0, "unit": "µM"},
      {"measurement": "Vmax", "setting": "[3]", "result": 98.5, "unit": "U/mg"},
      {"measurement": "kcat", "setting": "[3]", "result": 25.1, "unit": "s⁻¹"},
      {"measurement": "kcat/Km", "setting": "[3]", "result": 8300, "unit": "M⁻¹ s⁻¹"}
    ]}
  ]
}
